Positions count from the first letter of the chain named. Read-outs that look alike come from different tables or passages of the source.
B1: Antibody 8 (antibody, V domains shown)
VH: QVQLQQSGPGLVKPSQTLSLTCVISGDTVSSNRATWNWMRQSPLRGLEWLGRTYYRSKWYNDYAVSVKSRVVINPDTSKNQVSLQLNTVTPDDSGVYFCARGGHITVFGVNIDAFDIWGLGTKVTVSS
VL: DIQMTQSPSSLSASVGDRVTISCRASQRLNSYLHWYQQTPGQAPKLLIYATSTLQSGVSPRFSGSGSGTDFTLTISSLQPEDVATYYCQLSRTFGHGTKVEIK
B2: Antibody 11 (antibody, V domains shown)
VH: QVQLQQSGPGLVKPSQTLSLTCAISGDSVSSYNAVWNWIRQSPSRGLEWLGRTYYRSGWYNDYAESVKSRITINPDTSKNQFSLQLNSVTPEDTAVYYCARSGHITVFGVNVDAFDMWGQGTMVTVSS
VL: DIQMTQSPSSLSASVGDRVTITCRTSQSLSSYTHWYQQKPGKAPKLLIYAASSRLSGVPSRFSGSGSGTDFTLTISSLQPEDFATYYCQQSRTFGQGTKVEIK
B3: Antibody 15 (antibody, V domains shown)
VH: B2 VH with Y32N, G58K, M123T
VL: B2 VL with L55G
B4: Antibody 10 (antibody, V domains shown)
VH: QVQLQQSGPGLVKPSQTLSLTCAISGDSVSSNSATWNWIRQSPSRGLEWLGRTYYRSKWYNDYADFLKRRITINPDTSNNEVSLRLTSVTPDDTALYYCARGGHITVFGVNIDAFDVWGQGTMVTVSS
VL: B2 VL with V19I, T22S, S30R, T33L, A51S, S53T, R54L, L55Q, S77N, Q90L
B5: Antibody 13 (antibody, V domains shown)
VH: B2 VH
VL: B2 VL with T33D
B6: Antibody 14 (antibody, V domains shown)
VH: B2 VH with Y32N, G58K, M123T
VL: B2 VL
B7: Antibody 3 (antibody, V domains shown)
VH: B2 VH with Q6E, Y32N, G58K, I73V, Q85H, N87K, Y97F, A100V
VL: B2 VL with T33L, R54L, L55Q
B8: Antibody 12 (antibody, V domains shown)
VH: B2 VH
VL: B2 VL with L55G
B9: Antibody 5 (antibody, V domains shown)
VH: QVQLQQSGPGLVKPSQTLSLTCAISGDRVSSNSAVWNWIRQSPSRGLEWLGRTYYRSKWYYDYAESVKSRIVIDPDTSKNQVSLQLNSVTPEDSAIYYCARGGHITVFGLNIDAYDIWGQGAMVTVSS
VL: DIQMTQSPSSLSASVGDRVTISCRAQSLSSYLHWYQQKPGQPPKLLIYAATTLQSGVPSRFSGSGSGTDFTLTISTFQAEDVATYYCQQSRTFGQGTKVEIK
B10: Antibody 6 (antibody, V domains shown)
VH: B9 VH with V107E
VL: B9 VL

Key:
Experiment in all cases: cell-based or functional assay
[1] = target: HA of ca A/Wuhan/359/95 (H3N2) virus (influenza A virus)
[2] = target: HA of A/Fort Monmouth/1/47 (H1N1) virus (influenza A virus)
[3] = target: HA of A/Kawasaki/9/86 (H1N1) virus (influenza A virus)
[4] = target: HA of ca A/Texas/36/91 (H1N1) virus (influenza A virus)
[5] = target: HA of ca A/Beijing/262/95 (H1N1) virus (influenza A virus)
[6] = target: HA of ca A/New Caledonia/20/99 (H1N1) virus (influenza A virus)
HA of H1-BS10 virus = target: HA of H1-BS10 virus
[7] = target: HA of A/Hong Kong/8/68 (H3N2) virus (influenza A virus)
[8] = target: HA of A/Victoria/3/75 (H3N2) virus (influenza A virus, UniProt P03435 17-567)
Sequence of HA of A/Victoria/3/75 (H3N2) virus (P03435 17-567 limits assumed): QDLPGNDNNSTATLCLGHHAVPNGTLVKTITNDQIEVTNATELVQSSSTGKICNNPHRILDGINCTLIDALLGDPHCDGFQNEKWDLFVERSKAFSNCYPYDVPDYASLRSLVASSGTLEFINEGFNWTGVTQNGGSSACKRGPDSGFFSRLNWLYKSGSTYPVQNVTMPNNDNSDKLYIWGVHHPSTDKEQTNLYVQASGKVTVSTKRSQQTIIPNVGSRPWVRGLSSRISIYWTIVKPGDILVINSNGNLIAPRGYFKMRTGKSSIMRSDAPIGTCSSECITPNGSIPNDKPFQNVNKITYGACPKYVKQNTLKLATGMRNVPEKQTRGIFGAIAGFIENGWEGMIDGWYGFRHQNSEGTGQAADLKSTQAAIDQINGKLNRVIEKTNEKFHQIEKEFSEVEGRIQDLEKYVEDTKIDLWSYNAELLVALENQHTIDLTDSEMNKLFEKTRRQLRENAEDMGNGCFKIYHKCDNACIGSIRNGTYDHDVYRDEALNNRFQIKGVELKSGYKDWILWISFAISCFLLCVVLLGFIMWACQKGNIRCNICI

[9] = target: HA of H3-LA87 (A/Los Angeles/7/09 (H3N2)) virus (influenza A virus)
[10] = target: HA of ca A/Wuhan/359/95 (H3N2) virus (influenza A virus); remark: listed apart in the source
[11] = target: HA of ca A/Sydney/5/97 (H3N2) virus (influenza A virus)
[12] = target: HA of ca A/Panama/2007/99 (H3N2) virus (influenza A virus)
[13] = target: HA of A/Wisconsin/67/05 (H3N2) virus (influenza A virus)
[14] = target: HA of ca A/Perth/16/09 (H3N2) virus (influenza A virus)
[15] = target: HA of A/Victoria/361/11 (H3N2) virus (influenza A virus)
[16] = target: HA of A/Puerto Rico/8/34 (H1N1) virus (influenza A virus, UniProt P03452 18-565)
Sequence of HA of A/Puerto Rico/8/34 (H1N1) virus (P03452 18-565 limits assumed): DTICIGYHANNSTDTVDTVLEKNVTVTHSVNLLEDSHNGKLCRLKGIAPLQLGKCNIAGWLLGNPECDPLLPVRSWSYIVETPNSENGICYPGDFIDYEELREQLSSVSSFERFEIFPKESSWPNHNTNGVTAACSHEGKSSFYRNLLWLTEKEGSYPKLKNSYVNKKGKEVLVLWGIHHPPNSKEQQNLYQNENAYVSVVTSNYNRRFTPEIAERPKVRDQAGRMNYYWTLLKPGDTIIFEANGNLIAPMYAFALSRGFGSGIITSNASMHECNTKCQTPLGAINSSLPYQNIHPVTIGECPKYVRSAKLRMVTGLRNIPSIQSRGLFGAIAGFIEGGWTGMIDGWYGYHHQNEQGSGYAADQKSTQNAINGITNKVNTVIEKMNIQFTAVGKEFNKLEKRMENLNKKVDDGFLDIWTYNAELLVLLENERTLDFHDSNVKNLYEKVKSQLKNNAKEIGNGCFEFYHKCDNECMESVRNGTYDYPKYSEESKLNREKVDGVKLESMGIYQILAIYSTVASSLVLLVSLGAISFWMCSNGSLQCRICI

Binder	Neutralization IC50, H3-WH95 [1] [µg/mL]	Neutralization IC50, H1-FM47 [2] [µg/mL]	Neutralization IC50, H1-Kaw86 [3] [µg/mL]	Neutralization IC50, H1-TX91 [4] [µg/mL]	Neutralization IC50, H1-BJ95 [5] [µg/mL]	Neutralization IC50, H1-Ncal99 [6] [µg/mL]	Neutralization IC50, H1-BS10 (HA of H1-BS10 virus) [µg/mL]	Neutralization IC50, H3-HK68 [7] [µg/mL]	Neutralization IC50, H3-Vic75 [8] [µg/mL]	Neutralization IC50, H3-LA87 [9] [µg/mL]	Neutralization IC50, H3-WH95 [10] [µg/mL]	Neutralization IC50, H3-WH95-OR [10] [µg/mL]	Neutralization IC50, H3-Syd97 [11] [µg/mL]	Neutralization IC50, H3-Pa99 [12] [µg/mL]	Neutralization IC50, H3-Wl05 [13] [µg/mL]	Neutralization IC50, H3-Perth09 [14] [µg/mL]	Neutralization IC50, H3-VC11 [15] [µg/mL]	IC50 (read off the curve) [16] [µg/mL]
B1	> 50	–	–	–	–	–	–	–	–	–	–	–	–	–	–	–	–	–
B2	–	0.43	0.53	0.11	1.01	0.66	1.15	0.46	0.46	0.8	2.45	2.26	1.53	2.18	1.07	0.17	0.85	–
B3	–	0.35	0.48	0.13	1.81	0.79	1.89	0.5	0.35	0.83	3.32	3.48	1.79	3.39	1.3	0.5	1.29	–
B4	8.7	–	–	–	–	–	–	–	–	–	–	–	–	–	–	–	–	–
B5	–	0.5	0.41	0.09	1.86	0.77	1.23	0.44	0.43	1	2.77	3.01	2.18	2.62	1.19	0.28	1.03	–
B6	–	0.44	0.35	0.09	2.09	0.67	1.93	0.65	0.44	0.83	2.77	3.09	1.82	4.36	1.19	0.47	1.15	–
B7	3.96	–	–	–	–	–	–	–	–	–	5.63	7.7	–	–	–	–	–	~0.6
B8	–	0.28	0.28	0.12	1.31	0.61	1.25	0.42	0.32	0.82	2.09	2.34	1.56	–	–	0.25	0.83	~0.5
B9	3.72	–	–	–	–	–	–	–	–	–	–	–	–	–	–	–	–	–
B10	10.5	–	–	–	–	–	–	–	–	–	–	–	–	–	–	–	–	–

— patent publication US20200109188A1 (AstraZeneca / MedImmune, published 2020)
